Target: T1, VviWRKY40 (Vitis vinifera 'Muscat blanc à Petit …, UniProt E7BTN0 1-317)
T1 sequence: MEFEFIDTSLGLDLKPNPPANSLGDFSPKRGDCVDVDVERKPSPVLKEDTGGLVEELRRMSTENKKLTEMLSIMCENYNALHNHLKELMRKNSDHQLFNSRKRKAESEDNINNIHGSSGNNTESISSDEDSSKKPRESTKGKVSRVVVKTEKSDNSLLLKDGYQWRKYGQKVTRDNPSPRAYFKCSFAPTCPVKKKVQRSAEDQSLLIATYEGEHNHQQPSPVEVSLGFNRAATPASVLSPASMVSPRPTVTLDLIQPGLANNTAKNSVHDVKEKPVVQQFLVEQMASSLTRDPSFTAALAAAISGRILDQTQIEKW
Test: EMSA; shift without cold probe and with up to 50x cold probe; 50x and 200x unlabeled self-competitor tested; EMSA: LightShift Chemiluminescent kit, 50 ng protein, 15 ng probe, room temperature, 25 min (buffer and pH not stated); pull-down: poly(dI-dC), DTT, EDTA, EGTA, 4 °C, 1 h
Conditions: protein: recombinant; tags: 6xHis, pET32a fusion (19 kDa tag, 55 kDa in total); label: 3' biotin (Methods also says digoxigenin-labeled); blunt (duplex implied, only one strand printed)

B1: VviGT14 promoter 41-bp w-box fragment (dsDNA)
DNA 1: AGAAGTGAGAGGGTAAGTTGACCATGCACTCTCATCTAGAT
DNA 2: ATCTAGATGAGAGTGCATGGTCAACTTACCCTCTCACTTCT
binding result: binds
